In US20230138047A1, “ANTI-CLAUDIN-1 MONOCLONAL ANTIBODIES FOR THE PREVENTION AND TREATMENT OF FIBROTIC DISEASES” (Université de Strasbourg, priority 2019, published 2023):

What was measured:
[1] = system: Adriamycin-induced nephropathy; assay: Adriamycin-induced nephropathy model; type: in vivo, BALB/c mice; conditions: 250 μg/mouse i.p. twice weekly, 27 days; versus control group and valproic acid group
Procedure: The Adriamycin-induced nephropathy (ADR) model is a well-characterized disease model for chronic kidney disease and mirrors human kidney disease caused by primary focal segmental glomerulosclerosis (FSGS). The Adriamycin-induced nephropathy is a mouse model the mimics human FSGS (Focal Segmental Glomerulosclerosis). An efficacy study was performed at SMC lab (Tokyo, Japan) in accordance with local standards of ethics and animal care. Induction of Adriamycin-induced nephropathy model started on Day 0, when mice were intravenously administered adriamycin (doxorubicin hydrochloride, Wako Pure Chemical Industries, Ltd., Japan) in 0.9% saline at a dose of 13 mg/kg, in a volume of 10 mL/kg.
Groups of eight Adriamycin-induced nephropathic male BALB/c mice were administered either vehicle [saline], anti-CLDNA 1 mAb H3L3 (250 μg/mouse, twice weekly) intraperitoneally, or VPA (=valproic acid, provided at 0.4% in the drinking water) as a positive control for 27 days. Serum creatinine and BUN (blood urea nitrogen) was measured by FUJI DRI-CHEM 7000 (Fujifilm Corporation, Japan).

[2] = biological target: T1, CLDN1 expressed on A549 cells (Homo sapiens, UniProt O95832); assay: Flow cytometry binding study on A549 lung cells; design: unit not given here
T1 construct: endogenous in cells; host or cells: A549
T1 sequence (O95832 1-211): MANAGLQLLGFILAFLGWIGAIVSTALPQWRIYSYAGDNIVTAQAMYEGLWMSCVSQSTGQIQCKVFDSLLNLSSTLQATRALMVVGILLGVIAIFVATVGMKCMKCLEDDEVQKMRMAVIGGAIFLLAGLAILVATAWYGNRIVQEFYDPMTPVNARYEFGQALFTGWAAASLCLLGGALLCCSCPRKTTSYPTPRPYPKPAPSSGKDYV
Procedure: (§1) Cell Lines. The kidney cancer cell line RPTEC/TERT1 and lung cancer cell line A549, both originally from ATCC, were obtained from IGBMC in a collaboration with Dr. Irwin Davidson and Dr. Izabella Sumara, respectively. Both cell lines were cultured according to provider's instructions: the RPTEC/TERT1 kidney cancer cells were grown in ATCC-formulated DMEM:F12 Medium supplemented with hTERT RPTEC Growth Kit and 0.1 mg/mL G418. The A549 lung cancer cells were grown in ATCC-formulated F-12K Medium supplemented with 10% fetal bovine serum.
(§2) Binding Studies. Cells were de-attached using a solution of EDTA (4 mM) and re-suspended in PBS containing 1% FBS at 4° C. Then, 150,000 cells were incubated with increasing concentrations of the humanized H3L3 CLDN1-specific mAb (see WO/2017/162678) and the binding signals were read by flow cytometry after incubation with PE-labelled anti-human using a dilution of 1:100 and analyzed with Cytoflex and FlowJo V10. Two washes with PBS containing 1% FBS were performed after every antibody incubation. A binding curve for each cell line was built using the PE median fluorescence intensity (MFI) and the Kd of the interaction was calculated by applying the Michaelis-Menten mathematical model in R 3.5.1.

[3] = biological target: T2, CLDN1 on HREpic (PECs model) (Homo sapiens, UniProt O95832); assay: Flow cytometry binding on Human Renal Epithelial Cells (HREpic); conditions: 10 μg/mL, 24 hours after TNFα 10 ng/mL
T2 construct: Human Renal Epithelial Cells (HREpic), which are primary cell isolated from human kidney; host or cells: HREpic (Human Renal Epithelial Cells), TNFα-treated
T2 sequence (O95832 1-211): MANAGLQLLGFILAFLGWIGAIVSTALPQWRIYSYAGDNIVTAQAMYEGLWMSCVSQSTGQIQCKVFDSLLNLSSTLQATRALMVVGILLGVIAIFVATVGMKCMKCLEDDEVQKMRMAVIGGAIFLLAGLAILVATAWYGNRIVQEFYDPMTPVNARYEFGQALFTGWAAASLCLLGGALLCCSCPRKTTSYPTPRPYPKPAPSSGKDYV
Procedure: (§3) Cells. Human Renal Epithelial Cells (HREpic) were purchased from ScienCell Research Laboratories and grown in Epithelial Cell Medium according to manufacturer's instructions.
Flow cytometry. H3L3 binding and expression of human CLDN1 in HREpic was analyzed by flow cytometry 24 hours after TNFα treatment (10 ng/mL). Briefly, 200,000 cells per conditions were stained using H3L3 (10 μg/mL) or Mota (10 μg/mL) used as negative control. Primary antibodies were detected using an Alexa fluor 647-conjugated human-specific secondary antibody. Data were acquired using Cytoflex B2R2V0 (Beckman Coulter) and analyzed using CytExpert 2.1 and FlowJo v10. CLDN1 expression is shown as the difference of the mean fluorescence intensities of cells stained with H3L3 and cells stained with Mota.

TGF-β signalling = assay: TGF-β signaling reporter assay in A549 cells; type: cell-based; conditions: 50 μg/mL for 3 hours, TGF-β 10 ng/mL
Procedure: TGF-β Signaling Reporter Assay. A549 cells were transfected with TGF-β signalling reporter plasmid pGLA4.48[luc2P/SBE/Hygro] (Promega) using Fugene according to the manufacturer's instructions. Following transfection, the cells were supplemented with fresh medium containing control or CLDN1-specific mAb (50 μg/mL) for 3 hours at 37° C. Fresh medium was supplemented to the cells containing TGF-β (10 ng/mL) (Sigma) for 3 hours at 37° C. The plate was incubated for 15 minutes at room temperature followed by addition of ONE-Glo substrate (Promega) for 3 minutes at room temperature. Luminescence of the supernatants was read using a Berthold microplate reader.

[4] = biological target: T3, CLDN1 expressed on RPTEC/TERT1 cells (Homo sapiens, UniProt O95832); assay: Flow cytometry binding study on RPTEC/TERT1 kidney cells
T3 construct: endogenous in cells; host or cells: RPTEC/TERT1
T3 sequence (O95832 1-211): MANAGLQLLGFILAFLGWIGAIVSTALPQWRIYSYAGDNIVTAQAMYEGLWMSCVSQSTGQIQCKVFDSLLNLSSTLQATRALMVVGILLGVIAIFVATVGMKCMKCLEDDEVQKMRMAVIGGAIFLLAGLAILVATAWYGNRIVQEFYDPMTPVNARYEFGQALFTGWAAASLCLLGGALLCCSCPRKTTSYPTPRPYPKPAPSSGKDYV
Procedure: as §1, §2

[5] = system: Human Renal Epithelial Cells (HREpic); assay: HREpic 3D-culture proliferation/viability (ATP quantification); type: cell-based; conditions: TNFα 10 ng/mL, 10 μg/mL antibody, 6 days, preliminary data
Procedure: as §3
H3L3 Treatment. For 2D-culture, cells were seeded in 24-well plates coated with Poly-L-Lysine at a cell density of 5.10^4 cells/well. After 24 hours, the cells were treated with TNFα 10 ng/mL and Mota (10 μg/mL) or H3L3 (10 μg/mL). After 3 days, the cells were again treated with TNFα and antibody for 3 more days. After 6 days of treatment in total, the cells were lysed to measure gene expression by qRT-PCR. For 3D-culture, cells were seeded in 96-well ultra-low attachment plates (Corning, Sigma Aldrich, France) at a cell density of 5×10^3 cells/well. The same treatment as described above was applied for 6 days. Cell viability was assessed by ATP quantification using CellTitreGlo (Promega) according to manufacturer's instructions.
Statistics. Data are presented as the mean±s.d. and were analyzed by the unpaired Student's t-test or the two-tailed Mann-Whitney test as indicated after determination of distribution by the Shapiro-Wilk normality test. All experiments were performed at least in triplicates for 2D-culture and quadruplicates for 3D-culture. Data are considered as significant at p<0.05. Statistical analyzes for in vitro experiments were performed with GraphPad Prism 6 software.

concentration saturating the epitope [2]: 20
binding to PECs CLDN1 [3]: binds to PECs CLDN1
concentration saturating the epitope [4]: 50 µg/mL
B1: H3L3: humanized anti-Claudin-1 monoclonal antibody, two VH of SEQ ID NO: 3 and two VL of SEQ ID NO: 6 (antibody, V domains shown)
VH: QVQLVESGGGVVQPGRSLRLSCLGSGFSFSSYGMNWVRQAPGKGLEWVASISPSGSYFYYADSVKGRFTISRDNSKNTLYLQMTSLRAEDTAIYYCARLPGFNPPFDHWGQGTLVTVSS
VL: DIQMTQSPSSLSASVGDRVTITCKASQNVGGNVDWYQWKPGKAPKLLIYGASNRYTGVPDRFRGSGSGTDFTLTISSLQPEDVATYYCLQYKNNPWTFGGGTKVEIK
modifications: humanized variable heavy chain H3; humanized variable light chain L3
serum BUN [1]: non-significant but pronounced reduction
serum creatinine [1]: non-significant but pronounced reduction
TGF-β reporter activity (TGF-β signalling): significant reduction
cell proliferation/viability [5]: slight decrease
